± gives the uncertainty stated by the source.
B1: Dystrobrevin alpha, residues 235 to 294; numbered along this chain, Q9Y4J8 (parent)
chain: ENVFHPVECSYCHSESMMGFRYRCQQCHNYQLCQDCFWRGHAGGSHSNQHQMKEYTSWKS

Variants of: B1
Assay: abundance fitness (aPCA) (normalised: wild type 0, dead -1); higher = more abundant; growth selection in yeast, the domain comes from the species named
Details: Homo sapiens

Variant | abundance fitness
ENVFHPVECSYCHSESMMGFRYRCQQCHNYQLCQDCFWRGHAGGSHSNQHQMKESTSWKS | 0.245 ± 0.058
ENVFHPVECSYCHSESMMGFRYRCQQCHNYQLCQDCFWRGHAGGSHSNQHQMKEPTSWKS | -0.078 ± 0.12
ENVFHPVECSYCHSESMMGFRYRCQQCHNYQLCQDCFWRGHAGGSHSNQHQMKEWTSWKS | 0.06 ± 0.04
ENVFHPVECSYCHSESMMGFRYRCQQCHNYQLCQDCFWRGHAGGSHSNQHQMKEVTSWKS | 0.238 ± 0.068
ENVFHPVECSYCHSESMMGFRYRCQQCHNYQLCQDCFWRGHAGGSHSNQHQMKEKTSWKS | -0.609 ± 0.23
ENVFHPVECSYCHSESMMGFRYRCQQCHNYQLCQDCFWRGHAGGSHSNQHQMKEITSWKS | -0.066 ± 0.1
ENVFHPVECSYCHSESMMGFRYRCQQCHNYQLCQDCFWRGHAGGSHSNQHQMKEATSWKS | -0.064 ± 0.079
ENVFHPVECSYCHSESMMGFRYRCQQCHNYQLCQDCFWRGHAGGSHSNQHQMKENTSWKS | -0.144 ± 0.19
ENVFHPVECSYCHSESMMGFRYRCQQCHNYQLCQDCFWRGHAGGSHSNQHQMKEHTSWKS | -0.134 ± 0.27
ENVFHPVECSYCHSESMMGFRYRCQQCHNYQLCQDCFWRGHAGGSHSNQHQMKEFTSWKS | -0.155 ± 0.098
ENVFHPVECSYCHSESMMGFRYRCQQCHNYQLCQDCFWRGHAGGSHSNQHQMKELTSWKS | 0.06 ± 0.075
ENVFHPVECSYCHSESMMGFRYRCQQCHNYQLCQDCFWRGHAGGSHSNQHQMKEYTGWKS | -0.044 ± 0.08
ENVFHPVECSYCHSESMMGFRYRCQQCHNYQLCQDCFWRGHAGGSHSNQHQMKEYTDWKS | 0.071 ± 0.12
ENVFHPVECSYCHSESMMGFRYRCQQCHNYQLCQDCFWRGHAGGSHSNQHQMKEYTYWKS | -0.395 ± 0.13
ENVFHPVECSYCHSESMMGFRYRCQQCHNYQLCQDCFWRGHAGGSHSNQHQMKEYTLWKS | -0.165 ± 0.056
ENVFHPVECSYCHSESMMGFRYRCQQCHNYQLCQDCFWRGHAGGSHSNQHQMKEYTQWKS | -0.059 ± 0.089
ENVFHPVECSYCHSESMMGFRYRCQQCHNYQLCQDCFWRGHAGGSHSNQHQMKEYTKWKS | -0.019 ± 0.069
ENVFHPVECSYCHSESMMGFRYRCQQCHNYQLCQDCFWRGHAGGSHSNQHQMKEYTMWKS | 0.036 ± 0.081
ENVFHPVECSYCHSESMMGFRYRCQQCHNYQLCQDCFWRGHAGGSHSNQHQMKEYTHWKS | 0.124 ± 0.08
ENVFHPVECSYCHSESMMGFRYRCQQCHNYQLCQDCFWRGHAGGSHSNQHQMKEYTNWKS | -0.291 ± 0.12
ENVFHPVECSYCHSESMMGFRYRCQQCHNYQLCQDCFWRGHAGGSHSNQHQMKEYTFWKS | -0.391 ± 0.085
ENVFHPVECSYCHSESMMGFRYRCQQCHNYQLCQDCFWRGHAGGSHSNQHQMKEYTVWKS | 0.005 ± 0.068
ENVFHPVECSYCHSESMMGFRYRCQQCHNYQLCQDCFWRGHAGGSHSNQHQMKEYTCWKS | 0.074 ± 0.065

Variant | abundance fitness
ENVFHPVECSYCHSESMMGFRYRCQQCHNYQLCQDCFWRGHAGGSHSNQHQMKEYTTWKS | 0.008 ± 0.064
ENVFHPVECSYCHSESMMGFRYRCQQCHNYQLCQDCFWRGHAGGSHSNQHQMKEYTAWKS | 0.085 ± 0.064
ENVFHPVECSYCHSESMMGFRYRCQQCHNYQLCQDCFWRGHAGGSHSNQHQMKEYTRWKS | -0.152 ± 0.056
ENVFHPVECSYCHSESMMGFRYRCQQCHNYQLCQDCFWRGHAGGSHSNQHQMKEYTPWKS | 0.171 ± 0.077
ENVFHPVECSYCHSESMMGFRYRCQQCHNYQLCQDCFWRGHAGGSHSNQHQMKEYTIWKS | -0.11 ± 0.11
ENVFHPVECSYCHSESMMGFRYRCQQCHNYQLCQDCFWRGHAGGSHSNQHQMKEYTWWKS | -0.192 ± 0.089
ENVFHPVECSYCHSESMMGFRYRCQQCHNYQLCQDCFWRGHAGGSHSNQHQMKEYTEWKS | 0.058 ± 0.072
ENVFHPVECSYCHSESMMGFRYRCQQCHNYQLCQDCFWRGHAGGSHSNQHQMKEYTSWGS | 0.229 ± 0.08
ENVFHPVECSYCHSESMMGFRYRCQQCHNYQLCQDCFWRGHAGGSHSNQHQMKEYTSWTS | 0.049 ± 0.083
ENVFHPVECSYCHSESMMGFRYRCQQCHNYQLCQDCFWRGHAGGSHSNQHQMKEYTSWQS | 0.126 ± 0.12
ENVFHPVECSYCHSESMMGFRYRCQQCHNYQLCQDCFWRGHAGGSHSNQHQMKEYTSWYS | -0.099 ± 0.19
ENVFHPVECSYCHSESMMGFRYRCQQCHNYQLCQDCFWRGHAGGSHSNQHQMKEYTSWFS | -0.142 ± 0.1
ENVFHPVECSYCHSESMMGFRYRCQQCHNYQLCQDCFWRGHAGGSHSNQHQMKEYTSWIS | -0.392 ± 0.38
ENVFHPVECSYCHSESMMGFRYRCQQCHNYQLCQDCFWRGHAGGSHSNQHQMKEYTSWAS | 0.082 ± 0.079
ENVFHPVECSYCHSESMMGFRYRCQQCHNYQLCQDCFWRGHAGGSHSNQHQMKEYTSWVS | -0.105 ± 0.11
ENVFHPVECSYCHSESMMGFRYRCQQCHNYQLCQDCFWRGHAGGSHSNQHQMKEYTSWCS | -0.001 ± 0.086
ENVFHPVECSYCHSESMMGFRYRCQQCHNYQLCQDCFWRGHAGGSHSNQHQMKEYTSWES | -0.127 ± 0.15
ENVFHPVECSYCHSESMMGFRYRCQQCHNYQLCQDCFWRGHAGGSHSNQHQMKEYTSWPS | -0.034 ± 0.32
ENVFHPVECSYCHSESMMGFRYRCQQCHNYQLCQDCFWRGHAGGSHSNQHQMKEYTSWNS | 0.017 ± 0.3
ENVFHPVECSYCHSESMMGFRYRCQQCHNYQLCQDCFWRGHAGGSHSNQHQMKEYTSWHS | 0.074 ± 0.1
ENVFHPVECSYCHSESMMGFRYRCQQCHNYQLCQDCFWRGHAGGSHSNQHQMKEYTSWDS | 0.356 ± 0.21
ENVFHPVECSYCHSESMMGFRYRCQQCHNYQLCQDCFWRGHAGGSHSNQHQMKEYTSWLS | -0.013 ± 0.085

Source: the Human Domainome abundance scans (Beltran et al. 2025)
